The text below walks through data of article doi:10.1101/844829.

The target in assay [1] is Rhodamine-labeled GMPCPP-stabilized microtubules from porcine tubulin (10 % rhodamine-labeled tubulin) (porcine) (UniProt P02550). The experiment in a line: single-molecule TIRF microscopy.
The target of assay [2] is GMPCPP-stabilized microtubules polymerized from porcine tubulin (porcine) (UniProt P02550). Description: optical tweezers with 2D force clamp.

As to “Full-length budding yeast Kip3 (Kip3-eGFP-His6) (from UniProt P53086 1-805) (natural protein)”, in assay [1], the mean end residence time at the microtubule plus end (no load) was determined as 80 s and the mean run time on the microtubule (no load) was 150 s. In addition, in assay [2], the end residence time at the microtubule plus end (sideward load 0.5 pN) was found to be 33 s, the end residence time extrapolated to zero load from the high-assisting-load data is 17 s and the mean end residence time at the microtubule plus end (without load) was 64 s.
